# Results reported in the supplement of paper PMC10065799, “High-throughput profiling of sequence recognition by tyrosine kinases and SH2 domains using bacterial peptide display” (eLife, 2023).
# Tested on: AncSZ
# Experiment: phosphorylation enrichment, bacterial display (enrichment ratio); higher = better substrate or ligand; peptides without Tyr show the background
# 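Further: 11-residue human phosphosite peptides and single-mutation variants displayed on the E. coli surface, counted by deep sequencing, each peptide's frequency after selection divided by its frequency in the unselected input library; frequency after pTyr selection over input frequency; kinase dosed for 20-30% of maximal phosphorylation in three min.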
row,Sequence,phosphorylation enrichment
1,QDDTVYMGKVI [DCTN1_Y1244_T1249I],1.72
2,IPGVEYLVSII [TNC_Y1775],1.02
3,SIKHKYVTALY [KCNH2_Y611_D609H],0.537
4,TGEKLYQRKEF [ZNF283_Y627],0.813
5,KAEQLYIGVTV [EFHC2_Y509_E507Q],1.84
6,IEPCIYIPEDD [XPNPEP3_Y455_G453C],1.23
7,KVMANYMFKAG [MAML2_Y513_YF],0.638
8,ASLEAYCKHKY [RXRA_Y403],0.964
9,QQLQGYIPSNF [FRK_Y99_YF],1.11
10,AQADIYKANFQ [IKBKG_Y308_D311N],0.586
11,RSSKMYFKTRS [LPL_Y329_L330F],1.2
12,SGSFRYGSSCE [SELE_Y390],0.642
13,FSAGTYPRLEE [SYCN_Y108],0.765
14,VEDDMYRKTCT [XPA_Y257_L252V],1.33
15,MFKPMYALFRT [HUWE1_Y4078_N4075K],0.921
16,DRTGHYLCNAC [GATA1_Y223],0.691

# Tested on: c-Src
# Experiment: as above
row,Sequence,phosphorylation enrichment
1,QDDTVYMGKVI [DCTN1_Y1244_T1249I],0.942
2,IPGVEYLVSII [TNC_Y1775],0.5
3,SIKHKYVTALY [KCNH2_Y611_D609H],0.398
4,TGEKLYQRKEF [ZNF283_Y627],0.447
5,KAEQLYIGVTV [EFHC2_Y509_E507Q],2.33
6,IEPCIYIPEDD [XPNPEP3_Y455_G453C],0.513
7,KVMANYMFKAG [MAML2_Y513_YF],0.414
8,ASLEAYCKHKY [RXRA_Y403],0.411
9,QQLQGYIPSNF [FRK_Y99_YF],0.546
10,AQADIYKANFQ [IKBKG_Y308_D311N],0.799
11,RSSKMYFKTRS [LPL_Y329_L330F],0.856
12,SGSFRYGSSCE [SELE_Y390],0.466
13,FSAGTYPRLEE [SYCN_Y108],0.392
14,VEDDMYRKTCT [XPA_Y257_L252V],0.544
15,MFKPMYALFRT [HUWE1_Y4078_N4075K],1.75
16,DRTGHYLCNAC [GATA1_Y223],0.469

# Tested on: Fer (mouse)
# Experiment: as above
row,Sequence,phosphorylation enrichment
1,QDDTVYMGKVI [DCTN1_Y1244_T1249I],0.943
2,IPGVEYLVSII [TNC_Y1775],0.445
3,SIKHKYVTALY [KCNH2_Y611_D609H],0.398
4,TGEKLYQRKEF [ZNF283_Y627],0.437
5,KAEQLYIGVTV [EFHC2_Y509_E507Q],6.51
6,IEPCIYIPEDD [XPNPEP3_Y455_G453C],0.6
7,KVMANYMFKAG [MAML2_Y513_YF],0.394
8,ASLEAYCKHKY [RXRA_Y403],0.424
9,QQLQGYIPSNF [FRK_Y99_YF],0.679
10,AQADIYKANFQ [IKBKG_Y308_D311N],0.461
11,RSSKMYFKTRS [LPL_Y329_L330F],0.764
12,SGSFRYGSSCE [SELE_Y390],0.353
13,FSAGTYPRLEE [SYCN_Y108],0.464
14,VEDDMYRKTCT [XPA_Y257_L252V],0.696
15,MFKPMYALFRT [HUWE1_Y4078_N4075K],0.815
16,DRTGHYLCNAC [GATA1_Y223],0.408

# Molecular target: FGFR1 (UniProt P11362)
# Sequence (P11362 whole entry, looked up): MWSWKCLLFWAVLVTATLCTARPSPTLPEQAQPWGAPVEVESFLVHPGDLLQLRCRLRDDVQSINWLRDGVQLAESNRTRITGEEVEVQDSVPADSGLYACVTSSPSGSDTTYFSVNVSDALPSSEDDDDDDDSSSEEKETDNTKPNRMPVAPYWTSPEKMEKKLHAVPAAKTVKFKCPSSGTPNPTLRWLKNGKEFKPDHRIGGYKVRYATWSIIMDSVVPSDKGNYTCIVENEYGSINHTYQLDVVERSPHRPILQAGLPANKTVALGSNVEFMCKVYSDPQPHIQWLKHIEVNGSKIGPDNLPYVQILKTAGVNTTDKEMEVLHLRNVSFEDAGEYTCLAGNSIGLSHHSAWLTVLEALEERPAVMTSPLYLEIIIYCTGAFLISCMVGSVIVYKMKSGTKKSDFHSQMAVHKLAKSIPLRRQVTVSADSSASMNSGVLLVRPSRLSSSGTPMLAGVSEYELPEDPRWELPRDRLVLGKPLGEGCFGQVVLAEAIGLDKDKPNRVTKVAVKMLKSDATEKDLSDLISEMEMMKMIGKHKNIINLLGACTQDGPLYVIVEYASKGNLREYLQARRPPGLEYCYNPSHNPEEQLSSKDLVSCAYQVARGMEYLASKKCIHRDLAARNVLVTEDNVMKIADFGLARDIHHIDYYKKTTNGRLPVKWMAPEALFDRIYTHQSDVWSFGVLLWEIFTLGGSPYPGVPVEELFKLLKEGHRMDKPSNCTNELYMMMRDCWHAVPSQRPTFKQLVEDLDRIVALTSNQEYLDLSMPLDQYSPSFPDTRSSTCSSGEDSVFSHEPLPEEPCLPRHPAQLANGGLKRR
# Experiment: as above
row,Sequence,phosphorylation enrichment
1,QDDTVYMGKVI [DCTN1_Y1244_T1249I],0.913
2,IPGVEYLVSII [TNC_Y1775],0.552
3,SIKHKYVTALY [KCNH2_Y611_D609H],0.45
4,TGEKLYQRKEF [ZNF283_Y627],0.539
5,KAEQLYIGVTV [EFHC2_Y509_E507Q],3.47
6,IEPCIYIPEDD [XPNPEP3_Y455_G453C],0.738
7,KVMANYMFKAG [MAML2_Y513_YF],0.412
8,ASLEAYCKHKY [RXRA_Y403],0.472
9,QQLQGYIPSNF [FRK_Y99_YF],0.884
10,AQADIYKANFQ [IKBKG_Y308_D311N],0.389
11,RSSKMYFKTRS [LPL_Y329_L330F],0.701
12,SGSFRYGSSCE [SELE_Y390],0.393
13,FSAGTYPRLEE [SYCN_Y108],0.464
14,VEDDMYRKTCT [XPA_Y257_L252V],0.559
15,MFKPMYALFRT [HUWE1_Y4078_N4075K],0.606
16,DRTGHYLCNAC [GATA1_Y223],0.349

# Molecular target: EPHB2 (UniProt P29323)
# Sequence (P29323 whole entry, looked up): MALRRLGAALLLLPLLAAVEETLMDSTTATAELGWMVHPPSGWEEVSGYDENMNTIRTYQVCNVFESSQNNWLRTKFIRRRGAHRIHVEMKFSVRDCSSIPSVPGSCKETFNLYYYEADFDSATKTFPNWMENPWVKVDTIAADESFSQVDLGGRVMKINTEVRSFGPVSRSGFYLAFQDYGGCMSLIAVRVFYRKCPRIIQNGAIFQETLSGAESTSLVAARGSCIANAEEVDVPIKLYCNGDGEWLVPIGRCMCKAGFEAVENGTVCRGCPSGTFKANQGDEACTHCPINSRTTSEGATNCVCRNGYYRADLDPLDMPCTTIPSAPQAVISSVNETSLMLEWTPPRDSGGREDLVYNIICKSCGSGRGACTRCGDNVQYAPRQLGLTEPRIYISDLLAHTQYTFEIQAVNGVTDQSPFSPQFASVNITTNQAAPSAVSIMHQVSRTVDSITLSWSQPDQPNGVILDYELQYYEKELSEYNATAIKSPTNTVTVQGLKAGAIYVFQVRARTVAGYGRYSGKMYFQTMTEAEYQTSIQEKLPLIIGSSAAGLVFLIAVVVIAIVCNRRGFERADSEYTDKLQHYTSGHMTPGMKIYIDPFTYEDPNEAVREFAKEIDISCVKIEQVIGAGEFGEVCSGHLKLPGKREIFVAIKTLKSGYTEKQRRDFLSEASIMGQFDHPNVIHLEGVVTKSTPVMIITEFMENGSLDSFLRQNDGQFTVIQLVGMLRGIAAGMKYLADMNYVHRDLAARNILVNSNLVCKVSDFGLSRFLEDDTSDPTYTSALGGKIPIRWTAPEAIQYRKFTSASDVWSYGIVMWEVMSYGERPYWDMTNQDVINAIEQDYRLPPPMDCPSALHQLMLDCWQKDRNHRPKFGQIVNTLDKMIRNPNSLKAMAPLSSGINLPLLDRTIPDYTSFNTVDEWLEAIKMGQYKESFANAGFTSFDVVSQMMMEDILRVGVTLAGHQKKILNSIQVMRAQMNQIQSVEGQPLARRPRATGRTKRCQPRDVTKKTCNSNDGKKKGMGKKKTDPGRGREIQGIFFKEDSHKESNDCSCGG
# Experiment: as above
row,Sequence,phosphorylation enrichment
1,QDDTVYMGKVI [DCTN1_Y1244_T1249I],0.841
2,IPGVEYLVSII [TNC_Y1775],0.574
3,SIKHKYVTALY [KCNH2_Y611_D609H],0.4
4,TGEKLYQRKEF [ZNF283_Y627],0.379
5,KAEQLYIGVTV [EFHC2_Y509_E507Q],0.758
6,IEPCIYIPEDD [XPNPEP3_Y455_G453C],0.603
7,KVMANYMFKAG [MAML2_Y513_YF],0.744
8,ASLEAYCKHKY [RXRA_Y403],0.501
9,QQLQGYIPSNF [FRK_Y99_YF],0.881
10,AQADIYKANFQ [IKBKG_Y308_D311N],0.408
11,RSSKMYFKTRS [LPL_Y329_L330F],0.567
12,SGSFRYGSSCE [SELE_Y390],0.456
13,FSAGTYPRLEE [SYCN_Y108],0.464
14,VEDDMYRKTCT [XPA_Y257_L252V],0.636
15,MFKPMYALFRT [HUWE1_Y4078_N4075K],0.621
16,DRTGHYLCNAC [GATA1_Y223],0.676

# Tested on: c-Abl (mouse)
# Experiment: as above
row,Sequence,phosphorylation enrichment
1,QDDTVYMGKVI [DCTN1_Y1244_T1249I],2.06
2,IPGVEYLVSII [TNC_Y1775],0.664
3,SIKHKYVTALY [KCNH2_Y611_D609H],0.444
4,TGEKLYQRKEF [ZNF283_Y627],0.507
5,KAEQLYIGVTV [EFHC2_Y509_E507Q],0.876
6,IEPCIYIPEDD [XPNPEP3_Y455_G453C],0.862
7,KVMANYMFKAG [MAML2_Y513_YF],0.556
8,ASLEAYCKHKY [RXRA_Y403],0.727
9,QQLQGYIPSNF [FRK_Y99_YF],0.899
10,AQADIYKANFQ [IKBKG_Y308_D311N],0.761
11,RSSKMYFKTRS [LPL_Y329_L330F],1.07
12,SGSFRYGSSCE [SELE_Y390],0.486
13,FSAGTYPRLEE [SYCN_Y108],0.672
14,VEDDMYRKTCT [XPA_Y257_L252V],0.932
15,MFKPMYALFRT [HUWE1_Y4078_N4075K],1.85
16,DRTGHYLCNAC [GATA1_Y223],0.575

# Molecular target: Fyn (UniProt P06241)
# Sequence (P06241 whole entry, looked up): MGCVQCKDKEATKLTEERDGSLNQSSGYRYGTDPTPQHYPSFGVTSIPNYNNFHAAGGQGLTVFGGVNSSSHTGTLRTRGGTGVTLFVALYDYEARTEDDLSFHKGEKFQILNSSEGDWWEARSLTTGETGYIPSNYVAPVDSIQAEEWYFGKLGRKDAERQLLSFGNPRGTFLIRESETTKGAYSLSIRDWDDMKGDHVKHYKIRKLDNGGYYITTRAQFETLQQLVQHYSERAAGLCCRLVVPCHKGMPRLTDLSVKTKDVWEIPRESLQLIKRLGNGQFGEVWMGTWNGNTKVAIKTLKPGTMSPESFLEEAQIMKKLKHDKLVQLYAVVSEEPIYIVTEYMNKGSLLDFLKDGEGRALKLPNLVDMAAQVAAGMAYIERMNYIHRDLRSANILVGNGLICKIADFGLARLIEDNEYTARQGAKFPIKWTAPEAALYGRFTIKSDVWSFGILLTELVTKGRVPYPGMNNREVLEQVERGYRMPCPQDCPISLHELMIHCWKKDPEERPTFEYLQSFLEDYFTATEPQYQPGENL
# Experiment: as above
row,Sequence,phosphorylation enrichment
1,QDDTVYMGKVI [DCTN1_Y1244_T1249I],1.45
2,IPGVEYLVSII [TNC_Y1775],0.432
3,SIKHKYVTALY [KCNH2_Y611_D609H],0.43
4,TGEKLYQRKEF [ZNF283_Y627],0.526
5,KAEQLYIGVTV [EFHC2_Y509_E507Q],2.33
6,IEPCIYIPEDD [XPNPEP3_Y455_G453C],0.563
7,KVMANYMFKAG [MAML2_Y513_YF],0.344
8,ASLEAYCKHKY [RXRA_Y403],0.503
9,QQLQGYIPSNF [FRK_Y99_YF],0.938
10,AQADIYKANFQ [IKBKG_Y308_D311N],0.536
11,RSSKMYFKTRS [LPL_Y329_L330F],0.667
12,SGSFRYGSSCE [SELE_Y390],0.45
13,FSAGTYPRLEE [SYCN_Y108],0.41
14,VEDDMYRKTCT [XPA_Y257_L252V],0.602
15,MFKPMYALFRT [HUWE1_Y4078_N4075K],0.779
16,DRTGHYLCNAC [GATA1_Y223],0.389

# Molecular target: Hck (UniProt P08631)
# Sequence (P08631 whole entry, looked up): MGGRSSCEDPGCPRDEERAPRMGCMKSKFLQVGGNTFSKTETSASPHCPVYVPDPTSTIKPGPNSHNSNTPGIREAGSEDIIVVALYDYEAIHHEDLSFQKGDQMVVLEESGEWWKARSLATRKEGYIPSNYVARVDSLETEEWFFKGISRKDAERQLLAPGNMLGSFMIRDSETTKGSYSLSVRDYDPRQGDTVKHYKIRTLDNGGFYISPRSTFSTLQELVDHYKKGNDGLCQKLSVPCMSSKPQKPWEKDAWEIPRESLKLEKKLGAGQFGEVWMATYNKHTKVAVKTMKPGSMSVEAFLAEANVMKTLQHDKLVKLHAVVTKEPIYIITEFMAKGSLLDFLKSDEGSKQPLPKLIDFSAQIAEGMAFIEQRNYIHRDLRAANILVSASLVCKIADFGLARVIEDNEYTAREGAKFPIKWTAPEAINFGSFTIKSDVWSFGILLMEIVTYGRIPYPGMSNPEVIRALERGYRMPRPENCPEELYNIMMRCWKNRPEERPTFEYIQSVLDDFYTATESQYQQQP
# Experiment: as above
row,Sequence,phosphorylation enrichment
1,QDDTVYMGKVI [DCTN1_Y1244_T1249I],1.33
2,IPGVEYLVSII [TNC_Y1775],0.491
3,SIKHKYVTALY [KCNH2_Y611_D609H],0.524
4,TGEKLYQRKEF [ZNF283_Y627],0.543
5,KAEQLYIGVTV [EFHC2_Y509_E507Q],3.03
6,IEPCIYIPEDD [XPNPEP3_Y455_G453C],0.696
7,KVMANYMFKAG [MAML2_Y513_YF],0.342
8,ASLEAYCKHKY [RXRA_Y403],0.455
9,QQLQGYIPSNF [FRK_Y99_YF],0.647
10,AQADIYKANFQ [IKBKG_Y308_D311N],0.659
11,RSSKMYFKTRS [LPL_Y329_L330F],0.634
12,SGSFRYGSSCE [SELE_Y390],0.47
13,FSAGTYPRLEE [SYCN_Y108],0.406
14,VEDDMYRKTCT [XPA_Y257_L252V],0.626
15,MFKPMYALFRT [HUWE1_Y4078_N4075K],0.872
16,DRTGHYLCNAC [GATA1_Y223],0.489
